Results published in US20230295335A1 (published 2023).
Residue numbers refer to the chain shown, from its start. Each block holds one binder with its values, some of them ahead of it.

How the values were obtained:
[1] = biological target: T1, recombinant human EpCAM (R&D systems, cat no 9277-EP) (human, UniProt P16422 24-265); assay: BLI classical sandwich cross-block; human EpCAM held by immobilized first antibody IgG1-EpCAM-UBS-54-FEAR (competitor); second antibody 10 µg/mL in solution
T1 construct: also called human EpCAM extracellular domain
T1 sequence: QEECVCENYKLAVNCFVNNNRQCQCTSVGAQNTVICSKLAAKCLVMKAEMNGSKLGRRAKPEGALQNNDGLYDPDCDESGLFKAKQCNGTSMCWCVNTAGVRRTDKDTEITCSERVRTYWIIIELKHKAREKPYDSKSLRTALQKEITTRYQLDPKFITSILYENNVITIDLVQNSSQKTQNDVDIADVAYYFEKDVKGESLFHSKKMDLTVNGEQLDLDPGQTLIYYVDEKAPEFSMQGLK

[2] = biological target: T1, recombinant human EpCAM (R&D systems, …); assay: BLI classical sandwich cross-block; human EpCAM held by immobilized first antibody IgG1-EpCAM-323-A3-FEAR (competitor); second antibody 10 µg/mL in solution
[3] = biological target: T1, recombinant human EpCAM (R&D systems, …); assay: BLI classical sandwich cross-block; human EpCAM held by immobilized first antibody IgG1-EpCAM-A37-FEAR (competitor); second antibody 10 µg/mL in solution
[4] = biological target: T1, recombinant human EpCAM (R&D systems, …); assay: BLI classical sandwich cross-block; human EpCAM held by immobilized first antibody IgG1-EpCAM-C52-FEAR (competitor); second antibody 10 µg/mL in solution
[5] = biological target: T2, full length cynomolgus monkey EpCAM on CHO-S cells (cynomolgus monkey, UniProt Q1WER1 24-314 (rhesus entry)); assay: flow cytometry on CHO-S cells transfected with cynomolgus monkey EpCAM
T2 sequence: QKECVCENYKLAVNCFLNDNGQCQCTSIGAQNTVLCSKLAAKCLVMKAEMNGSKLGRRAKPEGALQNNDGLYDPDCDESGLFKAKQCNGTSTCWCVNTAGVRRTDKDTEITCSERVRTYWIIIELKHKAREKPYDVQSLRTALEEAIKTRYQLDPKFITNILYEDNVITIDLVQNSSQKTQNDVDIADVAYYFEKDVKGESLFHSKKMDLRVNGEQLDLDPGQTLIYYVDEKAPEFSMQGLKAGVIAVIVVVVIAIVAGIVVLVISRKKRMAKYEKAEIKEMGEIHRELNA

[6] = biological target: T3, full length mouse EpCAM on CHO-S cells (mouse, UniProt Q99JW5 24-315); assay: flow cytometry on CHO-S cells transfected with mouse EpCAM
T3 sequence: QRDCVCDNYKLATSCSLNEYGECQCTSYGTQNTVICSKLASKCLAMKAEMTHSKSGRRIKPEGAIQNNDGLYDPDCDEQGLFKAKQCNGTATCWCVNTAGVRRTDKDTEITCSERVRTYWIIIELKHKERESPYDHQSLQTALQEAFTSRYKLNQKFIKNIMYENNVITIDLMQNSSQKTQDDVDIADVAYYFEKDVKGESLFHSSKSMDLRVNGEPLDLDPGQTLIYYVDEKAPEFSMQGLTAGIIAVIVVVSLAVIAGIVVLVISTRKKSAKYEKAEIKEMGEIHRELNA

[7] = biological target: human 4-1BB (CD137) on cells (human, UniProt Q07011 24-255); assay: cell-based or functional assay
Chain of human 4-1BB (CD137) on cells (Q07011 24-255): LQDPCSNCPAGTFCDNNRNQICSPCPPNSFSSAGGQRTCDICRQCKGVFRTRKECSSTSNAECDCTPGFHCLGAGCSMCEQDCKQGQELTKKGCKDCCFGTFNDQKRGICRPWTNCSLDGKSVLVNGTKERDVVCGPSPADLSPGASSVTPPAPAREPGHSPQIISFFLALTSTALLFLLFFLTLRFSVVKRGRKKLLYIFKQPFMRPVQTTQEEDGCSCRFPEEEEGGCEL

FcγRIa = biological target: T4, FcγRIa (human, UniProt P12314 16-288, limits assumed, biotinylated); assay: SPR (Biacore 8K); His-tagged FcγR captured on anti-His chip
T4 construct: Bought His-tagged protein captured on anti-His chip; also called CD64 Protein, Human, Recombinant (His Tag), Biotinylated
T4 sequence (P12314 16-288 limits assumed): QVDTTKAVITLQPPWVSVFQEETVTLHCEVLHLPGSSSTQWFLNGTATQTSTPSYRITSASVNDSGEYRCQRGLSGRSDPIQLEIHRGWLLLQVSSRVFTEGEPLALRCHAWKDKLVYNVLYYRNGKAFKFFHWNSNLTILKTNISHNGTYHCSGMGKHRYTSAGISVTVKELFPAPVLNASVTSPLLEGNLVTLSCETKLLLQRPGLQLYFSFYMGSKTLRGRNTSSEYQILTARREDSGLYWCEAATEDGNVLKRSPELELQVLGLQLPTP

FcγRIIIa-V158 = biological target: T5, FcγRIIIa-V158 (human, UniProt P08637 17-208); assay: as above
T5 construct: Bought His-tagged protein
T5 sequence (P08637 17-208 F176V limits assumed): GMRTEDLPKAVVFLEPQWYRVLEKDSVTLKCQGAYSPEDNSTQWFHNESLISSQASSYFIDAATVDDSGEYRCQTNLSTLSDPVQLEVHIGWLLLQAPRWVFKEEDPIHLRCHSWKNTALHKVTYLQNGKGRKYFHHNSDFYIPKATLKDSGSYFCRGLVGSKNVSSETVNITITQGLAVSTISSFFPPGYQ

FcγRIIIa-F158 = biological target: T6, FcγRIIIa-F158 (human, UniProt P08637 17-208); assay: as above
T6 construct: extracellular domain; Bought His-tagged protein
T6 sequence (P08637 17-208): as the sequence (P08637 17-208 F176V limits assumed) above, with V160F counted along it

B1: IgG1-EpCAM-323-A3-FEAR (antibody)
heavy: QIQLVQSGPELKKPGETVKISCKASGYTFTNYGMNWVRQASGEGLKWMGWINTYTGEPTYGEDFKGRFAFSLETSASTAYLQINNLKNEDTATYFCARFGNYVDYWGQGTTLTVSSASTKGPSVFPLAPSSKSTSGGTAALGCLVKDYFPEPVTVSWNSGALTSGVHTFPAVLQSSGLYSLSSVVTVPSSSLGTQTYICNVNHKPSNTKVDKRVEPKSCDKTHTCPPCPAPEFEGGPSVFLFPPKPKDTLMISRTPEVTCVVVAVSHEDPEVKFNWYVDGVEVHNAKTKPREEQYNSTYRVVSVLTVLHQDWLNGKEYKCKVSNKALPAPIEKTISKAKGQPREPQVYTLPPSREEMTKNQVSLTCLVKGFYPSDIAVEWESNGQPENNYKTTPPVLDSDGSFFLYSRLTVDKSRWQQGNVFSCSVMHEALHNHYTQKSLSLSPG
light: DIVMTQAAFSNPVTLGTSASISCRSSKNLLHSNGITYLYWYLQKPGQSPHLLIYQMSNLASGVPDRFSSSGSGTDFTLRISRVEAEDVGVYYCAQNLEIPRTFGGGTKLEIKRTVAAPSVFIFPPSDEQLKSGTASVVCLLNNFYPREAKVQWKVDNALQSGNSQESVTEQDSKDSTYSLSSTLTLSKADYEKHKVYACEVTHQGLSSPVTKSFNRGEC
notes: also called IgG1-323-A3-FEAR
- corrected association response of the antibody in solution [1]: -0.01 nm
- corrected association response of the antibody in solution [2]: 0 nm
- corrected association response of the antibody in solution [3]: -0.02 nm
- corrected association response of the antibody in solution [4]: -0.02 nm

B5: bsIgG1-CD137-009-HC7LC2-FEAL/EpCAM-A37-FEAR (bispecific antibody)
heavy 1: EVQLVESGGGLVQPGRSLRLSCTASGFSLNDYWMSWVRQAPGKGLEWVGYIDVGGSLYYAASVKGRFTISRDDSKSIAYLQMNSLKTEDTAVYYCARGGLTYGFDLWGQGTLVTVSSASTKGPSVFPLAPSSKSTSGGTAALGCLVKDYFPEPVTVSWNSGALTSGVHTFPAVLQSSGLYSLSSVVTVPSSSLGTQTYICNVNHKPSNTKVDKRVEPKSCDKTHTCPPCPAPEFEGGPSVFLFPPKPKDTLMISRTPEVTCVVVAVSHEDPEVKFNWYVDGVEVHNAKTKPREEQYNSTYRVVSVLTVLHQDWLNGKEYKCKVSNKALPAPIEKTISKAKGQPREPQVYTLPPSREEMTKNQVSLTCLVKGFYPSDIAVEWESNGQPENNYKTTPPVLDSDGSFLLYSKLTVDKSRWQQGNVFSCSVMHEALHNHYTQKSLSLSPG
light 1: DIVMTQSPSSLSASVGDRVTITCQASEDISSYLAWYQQKPGKAPKRLIYGASDLASGVPSRFSASGSGTDYTFTISSLQPEDIATYYCHYYATISGLGVAFGGGTKVEIKRTVAAPSVFIFPPSDEQLKSGTASVVCLLNNFYPREAKVQWKVDNALQSGNSQESVTEQDSKDSTYSLSSTLTLSKADYEKHKVYACEVTHQGLSSPVTKSFNRGEC
heavy 2: not shown
light 2: EIELTQSPGTLSLSPGERATLSCRASQTISNNYLAWYQQKRGQAPRLLIYAASSRATGIPDRFSGTGSGTDFTLTISRLEPEDFAVYYCAQGELYPRQFGGGTKLEIKRTVAAPSVFIFPPSDEQLKSGTASVVCLLNNFYPREAKVQWKVDNALQSGNSQESVTEQDSKDSTYSLSSTLTLSKADYEKHKVYACEVTHQGLSSPVTKSFNRGEC
- binding result (FcγRIa): no binding (tested: 3,000 nM (highest concentration tested))
- binding result (FcγRIIIa-V158): no binding (tested: 10,000 nM (highest concentration tested))
- binding result (FcγRIIIa-F158): no binding (tested: 10,000 nM (highest concentration tested))

B6: IgG1-EpCAM-A37-FEAR (antibody)
heavy: not shown
light: B5 light 2
- corrected association response of the antibody in solution [1]: 0 nm
- corrected association response of the antibody in solution [2]: -0.01 nm
- binding result [5]: binds
- corrected association response of the antibody in solution [3]: -0.04 nm
- corrected association response of the antibody in solution [4]: 0 nm
- binding result [6]: binds

B7: IgG1-EpCAM-C52-FEAR (antibody, V domains shown)
VH: QVQLVQSGAEVKKPGASVKVSCKASGGTFSSYAISWVRQAPGQGLEWMGGIVPIFGTANYAQKFQGRVTITADESTSTAYMELSSLRSEDTAVYYCARDPFLHYWGQGTLVTVSS
VL: EIELTQSPGTLSLSPGERATLSCRASQSVSSSYLAWYQQKPGQAPRLLIYGASSRATGIPDRFSGSGSGTDFTLTISRLEPEDFAVYYCAQGELYPRQFGGGTKLDIKR
notes: The running text prints C52 as 052; also called IgG1-EpCAM-052-FEAR
- corrected association response of the antibody in solution [1]: 0 nm
- corrected association response of the antibody in solution [2]: -0.01 nm
- binding result [5]: binds
- corrected association response of the antibody in solution [3]: -0.03 nm
- corrected association response of the antibody in solution [4]: -0.02 nm
- binding result [6]: binds

Further lines, with some results ahead:

- binding result [5]: binds
- binding result [6]: binds
B2: IgG1-EpCAM-323-A3 (antibody)
heavy: not shown
light: B1 light
notes: Unmodified IgG1 constant region

- corrected association response of the antibody in solution [1]: -0.02 nm
- corrected association response of the antibody in solution [2]: 0 nm
- binding result [5]: binds
- corrected association response of the antibody in solution [3]: -0.03 nm
- corrected association response of the antibody in solution [4]: -0.01 nm
- binding result [6]: binds
B3: IgG1-EpCAM-UBS-54-FEAR (antibody, V domains shown)
VH: B7 VH with A16S, K19R, V52I
VL: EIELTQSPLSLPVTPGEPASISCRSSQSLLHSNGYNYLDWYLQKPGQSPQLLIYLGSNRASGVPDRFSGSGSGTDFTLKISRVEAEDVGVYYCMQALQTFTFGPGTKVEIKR

- EC50 CD107a GMFI (donor 1) [7]: 0.0503 µg/mL
- EC50 CD107a GMFI (donor 2) [7]: 0.03 µg/mL
- EC50 CD107a GMFI (donor 3) [7]: 0.0217 µg/mL
- EC50 CD107a GMFI (donor 4) [7]: 0.012 µg/mL
- EC50 CD107a GMFI (donor 6) [7]: 0.021 µg/mL
- EC50 GzmB GMFI (donor 1) [7]: 0.0179 µg/mL
- EC50 GzmB GMFI (donor 2) [7]: 0.0176 µg/mL
- EC50 GzmB GMFI (donor 3) [7]: 0.0204 µg/mL
- EC50 GzmB GMFI (donor 4) [7]: 0.0121 µg/mL
- EC50 GzmB GMFI (donor 5) [7]: 0.0201 µg/mL
- EC50 GzmB GMFI (donor 6) [7]: 0.0224 µg/mL
B4: bsIgG1-EpCAM-A37-FERL/CD137-009-HC7LC2-FEAR (bispecific antibody)
heavy 1: not shown
light 1: B5 light 2
heavy 2: B5 heavy 1 with L405F, K409R
light 2: B5 light 1
- binding result (FcγRIa): no binding (tested: 3,000 nM (highest concentration tested))
- binding result (FcγRIIIa-V158): no binding (tested: 10,000 nM (highest concentration tested))
- binding result (FcγRIIIa-F158): no binding (tested: 10,000 nM (highest concentration tested))
